In US20200262889A1 (B G NEGEV TECHNOLOGIES AND APPLICATIONS LTD AT BEN GURION …, published 2020):

Biological target: T1, mouse OAT-3 (oat3, slc22a8) (mouse, UniProt O88909 1-537)
T1 construct: whole, on cells; Expressed in HEK293T cells; coIP from lysates; not shown: myc-DDK tag of the pCMV6-Entry myc-DDK vector
T1 sequence (looked up): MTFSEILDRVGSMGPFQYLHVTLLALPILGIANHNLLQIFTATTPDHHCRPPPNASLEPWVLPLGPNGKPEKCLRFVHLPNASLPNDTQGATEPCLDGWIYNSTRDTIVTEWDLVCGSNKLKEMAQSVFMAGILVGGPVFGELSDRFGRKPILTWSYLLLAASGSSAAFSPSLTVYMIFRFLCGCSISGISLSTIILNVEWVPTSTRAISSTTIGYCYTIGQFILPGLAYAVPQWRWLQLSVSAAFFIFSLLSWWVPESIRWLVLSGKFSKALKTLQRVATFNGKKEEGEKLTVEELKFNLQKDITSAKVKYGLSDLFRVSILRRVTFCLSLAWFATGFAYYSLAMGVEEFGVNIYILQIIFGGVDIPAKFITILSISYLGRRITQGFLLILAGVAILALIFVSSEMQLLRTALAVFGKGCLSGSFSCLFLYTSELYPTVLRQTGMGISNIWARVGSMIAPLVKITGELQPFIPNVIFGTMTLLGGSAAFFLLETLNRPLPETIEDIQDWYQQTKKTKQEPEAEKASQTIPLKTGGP
Assay: coIP from HEK293T cells co-transfected with OAT-3 and IRBIT
Description: To determine whether IRBIT regulates succinate efflux via interaction with OATs, the interaction of OAT-1 and/or OAT-3 with IRBIT was monitored by coIP. […] Succinate uptake was elevated by expression of OAT-1 alone, that was abolished by the OAT inhibitor probenecid (FIG. 6B-C). Neither IRBIT, SUCNR1 stimulation, nor inhibition of PLC by U73122 affected the OAT-mediated succinate uptake. These findings indicate that OAT-1 activity is IRBIT-independent.

B1: IRBIT (IP3 receptor-binding protein released with IP3; S-adenosylhomocysteine hydrolase-like protein) (other)
chain: SMPDAMPLPGVGEELKQAKEIEDAEKYSFMATVTKAPKKQIQFADDMQEFTKFPTKTGRRSLSRSISQSSTDSYSSAASYTDSSDDEVSPREKQQTNSKGSSNFCVKNIKQAEFGRREIEIAEQDMSALISLRKRAQGEKPLAGAKIVGCTHITAQTAVLIETLCALGAQCRWSACNIYSTQNEVAAALAEAGVAVFAWKGESEDDFWWCIDRCVNMDGWQANMILDDGGDLTHWVYKKYPNVFKKIRGIVEESVTGVHRLYQLSKAGKLCVPAMNVNDSVTKQKFDNLYCCRESILDGLKRTTDVMFGGKQVVVCGYGEVGKGCCAALKALGAIVYITEIDPICALQACMDGFRVVKLNEVIRQVDVVITCTGNKNVVTREHLDRMKNSCIVCNMGHSNTEIDVTSLRTPELTWERVRSQVDHVIWPDGKRVVLLAEGRLLNLSCSTVPTFVLSITATTQALALIELYNAPEGRYKQDVYLLPKKMDEYVASLHLPSFDAHLTELTDDQAKYLGLNKNGPFKPNYYRY
notes: The methods say only 'IRBIT in pcDNA3.1(+)'
binding result: no binding
